Laboratory results reported in patent US20240067716A1, “IONIC LIQUID FORMULATIONS FOR TREATING INFLAMMATORY AND AUTOIMMUNE DISEASES” (i2O Therapeutics, Inc., priority 2021, published 2024).

Assay: Local delivery of infliximab to small intestinal tissue after intrajejunal or intravenous dosing, LC-MS/MS
Type: in vivo, Wistar rats
Settings: rat, 5 h
Text: Adult non-diabetic male Wistar rats were fasted overnight but given free access to water and subsequently dosed via intrajejunal injection (IJ) with infliximab and one of various choline-based ionic liquids, dosed via IJ with infliximab and saline, or dosed via intravenous injection (IV) with infliximab and saline.

Substance: infliximab
- % of the injected infliximab dose in the local small intestinal tissue (intrajejunal injection (IJ)): 0.06%
- % of the injected antibody dose in the small intestinal tissue (intravenous injection (IV), in saline): 0.95%
